Data as given in patent US20230374502A1.

Molecular target: SpCas9 (Streptococcus pyogenes Cas9) (Streptococcus pyogenes) (UniProt Q99ZW2)
Assay: cell-based or functional assay

## Acx137 (AcrVA1, wild type; AcrVA1_mbo)
  indel frequency (TIDE), OFF - R1, sample EMCV WT IRES - Acx137: 7.9%
  indel frequency (TIDE), OFF - R1, sample T2A - Acx -137: 11%
  indel frequency (TIDE), ON - R1, sample EMCV WT IRES - Acx137: 38.8%
  indel frequency (TIDE), ON - R1, sample T2A - Acx -137: 40.3%

## Acx105 (AcrIIA4, wild type; AcrIIA4_lmo)
  indel frequency (TIDE), OFF - R1, sample E2A-F2A - Acx-105: 1%
  indel frequency (TIDE), OFF - R1, sample EMCV IRESV5: 6.6%
  indel frequency (TIDE), OFF - R1, sample EMCV IRESV10: 5%
  indel frequency (TIDE), OFF - R1, sample EMCV IRESV15: 15.8%
  indel frequency (TIDE), OFF - R1, sample EMCV IRESV21: 12.2%
  indel frequency (TIDE), OFF - R1, sample EMCV WT IRES: 2.3%
  indel frequency (TIDE), OFF - R1, sample F2A - Acx-105: 0.8%
  indel frequency (TIDE), OFF - R1, sample T2A - Acx-105: 1.3%
  indel frequency (TIDE), OFF - R1, sample T2A-E2A-F2A - Acx-105: 0.7%
  indel frequency (TIDE), ON - R1, sample E2A-F2A - Acx-105: 2.7%
  indel frequency (TIDE), ON - R1, sample EMCV IRESV5: 12.5%
  indel frequency (TIDE), ON - R1, sample EMCV IRESV10: 26.5%
  indel frequency (TIDE), ON - R1, sample EMCV IRESV15: 54.3%
  indel frequency (TIDE), ON - R1, sample EMCV IRESV21: 50%
  indel frequency (TIDE), ON - R1, sample EMCV WT IRES: 1.2%
  indel frequency (TIDE), ON - R1, sample F2A - Acx-105: 1.2%
  indel frequency (TIDE), ON - R1, sample T2A - Acx-105: 3.4%
  indel frequency (TIDE), ON - R1, sample T2A-E2A-F2A - Acx-105: 4.5%
  indel frequency, OFF - R1, Acr start codon ACG: 13.5%
  indel frequency, OFF - R1, Acr start codon AUA: 9.8%
  indel frequency, OFF - R1, Acr start codon AUG: 1.4%
  indel frequency, OFF - R1, Acr start codon CUG: 7.8%
  indel frequency, OFF - R1, Acr start codon GUG: 9.5%
  indel frequency, OFF - R1, Acr start codon UUG: 11.7%
  indel frequency, ON - R1, Acr start codon ACG: 32.5%
  indel frequency, ON - R1, Acr start codon AUA: 25.4%
  indel frequency, ON - R1, Acr start codon AUG: 5.6%
  indel frequency, ON - R1, Acr start codon CUG: 22.3%
  indel frequency, ON - R1, Acr start codon GUG: 26.3%
  indel frequency, ON - R1, Acr start codon UUG: 27%
  inhibition of OFF target editing, Acr start codon CUG: 50%
  inhibition of ON target editing, Acr start codon CUG: 36%
  reduction of SpCas9 editing, Acr start codon AUG: > 80%
